{"source": "paper PMC9637814", "about": "“Aurora A–mediated pyruvate kinase M2 phosphorylation promotes biosynthesis with glycolytic metabolites and tumor cell cycle progression” (The Journal of Biological Chemistry, 2022)", "binders": {"B1": {"name": "shRNA-resistant Flag-PKM2 T45A (natural protein)", "chain": "not shown", "notes": "Flag-tagged human PKM2 T45A with two silent nucleotide substitutions in the shRNA-targeted region, in the pGIPZ system; Monomer and tetramer are both spoken of; 4 copies is the tetramer seen by cross-linking; also called PKM2 T45A mutant; source: H1299 with endogenous PKM2 knocked down, retroviral expression, purified on Flag beads"}, "B2": {"name": "GST-Aurora A (natural protein, human, UniProt O14965 1-403, looked up)", "chain": "MDRSKENCISGPVKATAPVGGPKRVLVTQQFPCQNPLPVNSGQAQRVLCPSNSSQRIPLQAQKLVSSHKPVQNQKQKQLQATSVPHPVSRPLNNTQKSKQPLPSAPENNPEEELASKQKNEESKKRQWALEDFEIGRPLGKGKFGNVYLAREKQSKFILALKVLFKAQLEKAGVEHQLRREVEIQSHLRHPNILRLYGYFHDATRVYLILEYAPLGTVYRELQKLSKFDEQRTATYITELANALSYCHSKRVIHRDIKPENLLLGSAGELKIADFGWSVHAPSSRRTTLCGTLDYLPPEMIEGRMHDEKVDLWSLGVLCYEFLVGKPPFEANTYQETYKRISRVEFTFPDFVTEGARDLISRLLKHNPSQRPMLREVLEHPWITANSSKPSNCQNKESASKQS", "notes": "full-length Aurora A cloned into the BamH/XhoI sites of p-GEX-5X-3"}, "B3": {"name": "His-PKM2 T45A mutant (natural protein)", "chain": "not shown", "notes": "Monomer and tetramer are both spoken of; source: E. coli, purified"}}, "key": {"[1]": {"target": "the molecule itself", "assay": "cross-linking; Flag-PKM2 purified on Flag beads from H1299 extracts, DSS crosslinking (1.5 mM, room temperature, 30 min), immunoblot"}, "His-PKM2": {"target": "T1, His-PKM2 (human, UniProt P14618 1-531)", "T1 construct": "full-length PKM2 cloned into the EcoRI/BamHI sites of pET-22b; also called His-tagged PKM2; His-PKM2 WT; source: E. coli, purified (nickel column)", "T1 sequence (P14618 whole entry)": "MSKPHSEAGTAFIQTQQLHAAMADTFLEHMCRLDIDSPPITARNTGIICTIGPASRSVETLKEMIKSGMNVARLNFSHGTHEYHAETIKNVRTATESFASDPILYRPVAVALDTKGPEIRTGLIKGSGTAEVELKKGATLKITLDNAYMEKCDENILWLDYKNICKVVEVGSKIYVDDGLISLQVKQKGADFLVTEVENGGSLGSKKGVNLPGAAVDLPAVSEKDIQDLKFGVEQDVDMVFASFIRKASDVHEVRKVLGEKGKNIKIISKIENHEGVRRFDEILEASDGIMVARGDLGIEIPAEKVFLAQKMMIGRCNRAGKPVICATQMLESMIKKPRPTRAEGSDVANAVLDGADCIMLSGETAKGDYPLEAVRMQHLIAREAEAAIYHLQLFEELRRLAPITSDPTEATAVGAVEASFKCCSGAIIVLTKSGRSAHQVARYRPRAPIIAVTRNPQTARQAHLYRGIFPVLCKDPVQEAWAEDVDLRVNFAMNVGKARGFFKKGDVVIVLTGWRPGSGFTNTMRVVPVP", "assay": "pull-down; GST-tagged protein on resin incubated with purified His-PKM2 for 2 h at 4 °C, eluted with 10 mM GSH in 50 mM Tris pH 8.0, immunoblot", "conditions": "both partners purified"}, "[2]": {"target": "the molecule itself", "assay": "SEC-MALS; 1 mg/ml protein in 150 mM NaCl, 20 mM Tris pH 7.5; Superdex 200 Increase, 0.3 ml/min; tetramer and monomer"}}}
{"binder": "B1", "values": [{"measurement": "stoichiometry N", "setting": "[1]", "result": 4}]}
{"binder": "B2", "values": [{"measurement": "binding result", "setting": "His-PKM2", "result": "binds"}]}
{"binder": "B3", "values": [{"measurement": "stoichiometry N", "setting": "[2]", "result": 4}]}
